These results are taken from publication PMC10619557, “Crystal Structures of 6-Phosphogluconate Dehydrogenase from Corynebacterium glutamicum” (Journal of Microbiology and Biotechnology, 2023).

The assay deals with 6-phosphogluconate dehydrogenase from Corynebacterium glutamicum ATCC 13032 (Corynebacterium glutamicum ATCC 13032). As to the kind of experiment: SEC; analytical, Superdex 200 Increase 10/300 GL; 1 ml at 1 mg/ml; 40 mM Tris-HCl pH 8.0, 150 mM NaCl; mass from a calibration curve.

Usually stoichiometry N stands for a count of units in the complex or per binding partner.

In turn, “6-phosphogluconate dehydrogenase from Corynebacterium glutamicum ATCC 13032 (enzyme)” came in with a stoichiometry N of 2.
